Laboratory results reported in PMC5033356, “Crystal Structure of the Escherichia coli Fic Toxin-Like Protein in Complex with Its Cognate Antitoxin” (PLoS ONE, 2016).

T1: EcFicT_(G55R) (Escherichia coli, UniProt P20605 3-200, G55R)
T1 construct: EcFicT of Escherichia coli, UniProt P20605, with G55R (the change encoded by the temperature-sensitive fic-1 allele), introduced by a single base-pair mutation; model of PDB 5JFF covers residues 10-15, 17-198; G55R is the change of the fic-1 mutant allele described by Utsumi et al; here it was introduced into the plasmid by mutagenesis; also called G55R point mutant of EcFicT; product of the …
T1 sequence: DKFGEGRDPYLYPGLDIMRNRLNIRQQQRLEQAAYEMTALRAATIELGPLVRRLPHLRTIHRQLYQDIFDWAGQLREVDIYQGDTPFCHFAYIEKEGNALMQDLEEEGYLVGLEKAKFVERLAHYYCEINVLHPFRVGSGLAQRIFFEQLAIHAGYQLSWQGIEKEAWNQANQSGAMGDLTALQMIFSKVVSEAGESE

T2: EcFicT (E. coli Fic toxin-like protein, wild type) (Escherichia coli, UniProt P20605 3-200)
T2 construct: EcFicT, product of the fic gene (renamed ecficT) of Escherichia coli; UniProt P20605; model of PDB 5JFZ covers residues 10-81, 88-195; also called EcFicTwt; Fic protein from E. coli
T2 sequence: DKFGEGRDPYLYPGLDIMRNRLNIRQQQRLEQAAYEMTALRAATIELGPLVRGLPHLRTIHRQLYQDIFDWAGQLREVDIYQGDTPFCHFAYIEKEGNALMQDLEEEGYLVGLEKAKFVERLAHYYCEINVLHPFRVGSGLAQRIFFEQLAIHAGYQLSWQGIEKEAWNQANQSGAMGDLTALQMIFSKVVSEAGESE


Tests used:
EcFicT_(G55R) = target: T1, EcFicT_(G55R); assay: SEC-MALS; conditions: both partners purified
[1] = target: T2, EcFicT (E. coli Fic toxin-like protein, …); assay: SEC-MALS; conditions: both partners purified

Row | Binder | stoichiometry N (EcFicT_(G55R)) | stoichiometry N [1]
1 | EcFicA (cognate antitoxin of EcFicT, wild type) (natural protein, Escherichia coli, EcFicA, product of the yhfG gene (renamed ecficA) of Escherichia coli; UniProt P0ADX5; model of PDB 5JFF covers residues 3-53; also called EcFicAwt; YhfG) KKLTDKQKSRLWELQRNRNFQASRRLEGVEMPLVTLTAAEALARLEELRSHYER | 1 | 1
2 | EcFicA_(E28G) (natural protein, Escherichia coli, model of PDB 5JFZ covers residues 5-53; also called antitoxin mutant EcFicA_(E28G)) KKLTDKQKSRLWELQRNRNFQASRRLGGVEMPLVTLTAAEALARLEELRSHYER | 1 | 1
